This assay concerns the target T1, His-tagged mouse CRY2 D325H PHR domain (residues 1-512) (mouse, UniProt Q9R194 1-512, D325H).
T1 sequence (looked up): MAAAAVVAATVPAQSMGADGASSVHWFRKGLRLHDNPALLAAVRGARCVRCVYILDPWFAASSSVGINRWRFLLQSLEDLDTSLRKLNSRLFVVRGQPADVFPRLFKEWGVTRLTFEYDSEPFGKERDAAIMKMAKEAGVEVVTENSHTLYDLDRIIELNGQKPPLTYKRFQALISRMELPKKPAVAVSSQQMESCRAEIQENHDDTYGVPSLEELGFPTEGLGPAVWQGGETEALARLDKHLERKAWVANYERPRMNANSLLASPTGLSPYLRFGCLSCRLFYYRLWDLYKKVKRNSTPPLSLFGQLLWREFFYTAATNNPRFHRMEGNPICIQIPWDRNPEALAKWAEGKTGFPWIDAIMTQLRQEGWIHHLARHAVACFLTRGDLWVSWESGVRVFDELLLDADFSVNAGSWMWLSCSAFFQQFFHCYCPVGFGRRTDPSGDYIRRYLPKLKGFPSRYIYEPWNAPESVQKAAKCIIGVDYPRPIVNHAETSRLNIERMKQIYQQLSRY
Put plainly: BLI. In general terms: BLI is a label-free optical method that tracks binding on a fibre tip over time.

B1: CLOCK:BMAL1 PAS domain core (PAS-AB domain heterodimer), biotinylated (complex)
chain 1: ASEIRQDWKPTFLSNEEFTQLMLEALDGFFLAIMTDGSIIYVSESVTSLLEHLPSDLVDQSIFNFIPEGEHSEVYKILSTHLLESDSLTPEYLKSKNQLEFCCHMLRGTIDPKEPSTYEYVRFIGNFKSLTSVSTSTHNGFEGTIQRTHRPSYEDRVCFVATVRLATPQFIKEMCTVEEPNEEFTSRHSLEWKFLFLDHRAPPIIGYLPFEVLGTSGYDYYHVDDLENLAKCHEHLMQYGKGKSCYYRFLTKGQQWIWLQTHYYITYHQWNSRPEFIVCTHTVVSYAEVRAERRRELGIEESL
chain 2: not shown
The term Kd denotes the concentration at which binding is half-saturated. Low values mean tighter binding, high ones weaker binding. Consider B1, for which binding was characterised by a dissociation constant (Kd) of 1800 nM.

Values taken from doi:10.1101/2021.01.08.425994 (bioRxiv, 2021).
